B1: H1H6782P-DM1: anti-PRLR antibody H1H6782P conjugated to DM1 through an SMCC linker (conjugate)
VH: EVQLVESGGGLVQPGRSLRLSCAASGFTFDDYAMHWVRQAPGKGLEWVSGIIWNSGHIGYGDSVKGRFTISRDNAKKSLYLQMNSLRAEDTALYYCARDSGRYQSYFDYWGQGTLVTVSS
VL: DIQMTQSPSTLSASVGDRVTITCRASHIISSWLAWYQQKPGKAPKVLIFKASSLESGVPSRFSGSGSGTEFTLTISSLQPDDFATYYCQQYNTYSRTFGQGTKVEIK
B2: H1H6975N-DM1 (conjugate)
VH: EVHLVESGGGLVQPGGSLRLSCAASGFTFSSYEMNWVRQTPGKGLEWISHISSRSVIIYYADSVKGRFTISRDNAKNSLFLQMNSLRAEDTAVYFCAGITIFGIPEYWGQGTLVTVSS
VL: EIVLTQSPATLSLSPGERATLSCRASQSVSSYFAWYQQKPGQAPRLLIYDASSRATGIPTRFSGSGSGTDFTLTISSLEPEDFAVYYCQQRSSWPITFGQGTRLEIK
B3: H1H6959N2-DM1 (conjugate)
VH: EVQLVESGGGLVQPGRSLRLSCAASGFTFDDYAMHWVRQAPGKGLEWVSGISWHSGIIGYADSVKGRFTISRDNAKNSLYLQMNSLRTEDAALYYCAKIGSYFYFDSWGQGTLVTVSS
VL: EIVLTQSPGTLSLSPGERATLSCRASQSVSSNYLAWYQQKPGQAPRLLIYGASSRATGIPDRFSGSGSGTDFTLTISRLEPEDFAVYYCQQFGSSGYTFGQGTNLEIK
B4: H1H6960N-DM1 (conjugate)
VH: EVQLVESGGGLVKPGGSLRLSCAASGITFSSYSMNWVRQAPGKGLEWVSSISTRSSLIHYADSVKGRFTISRDNAKNSLYLQMNSLRDEDTAVYYCARWDAAAAFDYWGQGTLVIVSS
VL: DIQLTQSPSFLSASVGDRVTITCWASQGISSYLAWYQQKPGKAPKLLIYVASTLQSGVPSRFSGSGSGTEFTLTISSLQPEDFATYFCQQLNSYPLTFGGGTKVEIK

Key:
HEK293 (293) cells = assay: Cell viability (cell kill) assay; format: cell-based; conditions: 293; Table 11; 3 days
Description: (§1) PRLR-overexpressing cells, including HEK293, PC3, MCF7 and NCI-N87, were generated to assess the ability of anti-PRLR conjugated antibodies to reduce cell viability. For comparative purposes, PC3 and T47D cells with overexpressed ErbB2 were also generated, as well as an MCF7 cell line over-expressing both hPRLR and hErbB2. Briefly, Lipofectamine® 2000-mediated transfection methodology was utilized to generate HEK293 cells expressing human PRLR (HEK293/hPRLR) or human ErbB2 (HEK293/hErbB2). Lipofectamine LTX with Plus Reagent was used to generate PC3 cells expressing human PRLR (PC3/hPRLR) or human ErbB2 (PC3/hErbB2). Lentiviral-mediated transduction was utilized to generate MCF7 cells expressing human PRLR (MCF7/hPRLR), NCI-N87 cells expressing human PRLR (NCI-N87/hPRLR), T47D cells over-expressing human ErbB2 (T47D/hErbB2), and MCF7 cells expressing both human PRLR and human ErbB2 (MCF7/hPRLR/hErbB2). All lines were selected for at least two weeks in complete growth media plus appropriate selection reagents. Stably expressing populations were enriched for PRLR expression via FACS using the anti PRLR antibody Control I.
(§2) Next, the ability of anti-PRLR-DM1 antibody-drug conjugates (i.e., anti-PRLR antibodies conjugated to DM1 via a non-cleavable linker [SMCC]) to reduce cell viability was determined using in vitro cell based assays. Cells were seeded in PDL-coated 96 well plates at 1500 to 10000 cells per well in complete growth media and allowed to grow overnight. For cell viability curves, ADCs or free DM1 (as the methyl disulfide derivative DM1-SMe) were added to the cells at final concentrations ranging from 500 nM to 5 pM and incubated for 3 days. The 293, PC3 and T47D cells were incubated with CCK8 (Dojindo, Rockville, Md.) for the final 1-3 hours and the absorbance at 450 nm (OD450) was determined on a Flexstation3 (Molecular Devices, Sunnyvale, Calif.). MCF7 cells were treated with Hoechst 33342 nuclear stain while being fixed with 4% formaldehyde. Images were acquired on the ImageXpress micro XL (Molecular Devices, Sunnyvale, Calif.) and nuclear counts were determined via Columbus image analysis software (Perkin Elmer, Shelton, Conn.). Background OD450 values (PC3, 293, and T47D) or nuclear counts (MCF7) from digitonin (40 nM) treated cells was subtracted from all wells and viability was expressed as a percentage of the untreated controls. IC50 values were determined from a four-parameter logistic equation over a 10-point response curve (GraphPad Prism).

T47D#11 tumors = assay: Tumor growth inhibition in xenograft-bearing mice; format: in vivo, CB17 SCID mice
Description: (§3) Briefly, 20×10^6 MCF7/PRLR cells (ATCC HTB-22 transfected with full length hPRLR as previously described) were implanted subcutaneously into the left mammary fat pad of female NCr nude mice. In other studies, 10×10^6 PC3/PRLR (ATCC CRL-1435 transfected with full length hPRLR as previously described) were implanted subcutaneously into the left flank of male SCID mice. Additionally, 10×10^6 parental T47D (ATCC HTB-133) or […] T47D#11 cells (ATCC HTB-133 serially passaged in vivo as described below) were subcutaneously implanted into the left flank of female CB17 SCID mice. All mice were obtained from Taconic (Hudson, N.Y.). Each bolus of cells was supplemented with a 90-day estrogen release pellet (1.7 mg/pellet; Innovative Research America, Sarasota Fla.). Once tumors had reached an average volume of 250 mm^3, mice were randomized into groups of seven and dosed with anti-PRLR antibody-drug conjugates of the invention or control reagents. Control reagents included PBS vehicle, free methyl-disulfide DM1 (DM1-SMe) and isotype Control 1-DM1.
(§4) In multi-dose studies, mice were dosed once a week for a total of three weeks with tumor volumes and body weights being monitored twice weekly throughout the study. Test ADCs were dosed at 5 and/or 15 mg/kg in the multi-dose studies. In single-dose studies, mice received a single dose of test ADC, and tumor volumes and body weights were monitored twice weekly throughout the study. Test ADCs were dosed at 1, 2.5, 5, and 15 mg/kg in the single-dose studies. Average tumor size as well as tumor growth inhibition relative to the vehicle treated group were calculated for each group. Tumors were measured with calipers twice a week until the average size of the vehicle group reached 1000 mm^3. Tumor size was calculated using the formula (length×width^2)/2. Tumor growth inhibition was calculated according to the following formula: (1−((Tfinal−Tinitial)/(Cfinal−Cinitial)))*100, where T (treated group) and C (control group) represent the mean tumor mass on the day the vehicle group reached 1000 mm^3. […] Results are summarized in Tables 21-25 (multi-dose) and Table 26 (single dose). (NT=not tested in the particular experiment shown).

T47D cells = assay: Cell viability (cell kill) assay; format: cell-based; conditions: T47D, Table 12, 3 days; for IC50: read-out: IC50
Protocol: as §2
Additionally, the impact of the PRLR ligand, PRL, on PRLR-SMCC-DM1 cell kill in T47D cells was assessed. T47D cells were incubated simultaneously with PRL (15 nM) and either a non-blocking anti PRLR antibody (H1H6782P) or a receptor blocking antibody (H1H6958N2).
(§5) Additional toxins (DM4, MeNHC3-May, and MMD) conjugated to anti-PRLR antibodies were also tested in T47D and MCF7/hPRLR cell lines, and results are summarized in Tables 19 (293 and T47D cell killing) and 20 (MCF7/ATCC and MCF7/PRLR cell killing). (ND=not detected).

MCF7/PRLR tumors = assay: Tumor growth inhibition in xenograft-bearing mice; format: in vivo, NCr nude mice; conditions: for Final Tumor size mm^3 (mean ± SEM): MCF7/PRLR tumors TRIAL #2, NCr Nude mice, Day 63
Description: as §3, §4

PC3/PRLR tumors = assay: Tumor growth inhibition in xenograft-bearing mice; format: in vivo, SCID mice; conditions: for Average Tumor Growth Inhibition (%): multi-dose 15 mg/kg, SCID mice
Description: as §3, §4

[1] = Conjugate characterization: protein and linker/payload concentrations, payload loading (UV, MALDI-TOF, SEC-HPLC, RP-HPLC); format: physicochemical; conditions: Anti-PRLR-SMCC-DM1 conjugates; Table 9
Description: Selected anti-PRLR antibodies were conjugated to the maytansinoid DM1 through an SMCC linker using methods similar to those set forth in U.S. Pat. No. 5,208,020 and US Patent Application Publication No. 2010/0129314, the disclosures of which are incorporated by reference herein in their entireties. The conjugates were purified by size exclusion chromatography and sterile filtered. All starting materials and solvents were purchased commercially and used without purification, unless otherwise noted.
Protein and linker/payload concentrations were determined by UV spectral analysis and MALDI-TOF mass spectrometry. Size-exclusion HPLC established that all conjugates used were >95% monomeric, and RP-HPLC established that there was <0.5% unconjugated linker payload. Yields are reported in Table 8 and 9 based on protein. All conjugated antibodies were analyzed by UV for linker payload loading values according to Hamblett et al, 2004, Clinical Cancer Research 10(20):7063-7070, and by mass difference, native versus conjugated.

MCF7 (MCF7/ATCC) cells = assay: Cell viability (cell kill) assay, nuclear counts; format: cell-based; conditions: MCF7; Table 12; 3 days
Description: as §1, §2
(§6) Finally, the potency of anti-PRLR antibodies conjugated to DM1 via the non-cleavable linker SMCC was compared to the cell killing potency of anti-PRLR antibodies conjugated to MMAE via the cleavable linker: mc-vc-PAB (available from Concortis, San Diego, Calif.). Cells used in this experiment were PC3, PC3/hPRLR, MCF7/ATCC and MCF7/PRLR.
as §5

PC3/hPRLR cells = assay: Cell viability (cell kill) assay; format: cell-based, human; conditions: PC3/PRLR; Table 11; 3 days
Description: as §1, §2, §6

[2] = test system: MCF7/hPRLR (MCF7/PRLR) cells; assay: Cell viability (cell kill) assay, nuclear counts; format: cell-based, human; conditions: Table 12, 3 days
Description: as §1, §2, §6, §5

PC3 cells = assay: Cell viability (cell kill) assay; format: cell-based; conditions: Table 11, 3 days
Description: as §1, §2, §6

[3] = test system: HEK293/hPRLR (293/hPRLR) cells; assay: Cell viability (cell kill) assay; format: cell-based, human; conditions: 293/PRLR, Table 11, 3 days; for IC50: read-out: IC50
Description: as §1, §2

Molecule | IC50 (HEK293 (293) cells) [nM] | % Kill (T47D cells) [%] | IC50 (T47D cells) [nM] | Payload:Antibody Molar Ratio (MS) [1] | % Kill (MCF7 (MCF7/ATCC) cells) [%] | IC50 (MCF7 (MCF7/ATCC) cells) [nM] | % Kill (PC3/hPRLR cells) [%] | IC50 (PC3/hPRLR cells) [nM] | % Kill [2] [%] | IC50 [2] [nM] | % Kill (HEK293 (293) cells) [%] | % Kill [3] [%] | IC50 [3] [nM] | Payload:Antibody Molar Ratio (UV) [1] | also measured
B1 | 100 | 74 | 4.19 | 2.8 | 57 | 120 | 64 | 0.92 | 85 | 0.65 | – | – | – | – | Average Tumor Growth Inhibition (%) (T47D#11 tumors; T47D#11 tumors, multi-dose 5 mg/kg, SCID mice, Day 66): 90%; effect on T47D#11 tumor growth (T47D#11 tumors; multi-dose, 5 and 15 mg/kg): potently inhibited tumor growth; Final Tumor size mm^3 (mean ± SEM) (MCF7/PRLR tumors; multi-dose 5 mg/kg): 74 ± 34 mm^3; Final Tumor size mm^3 (mean ± SEM) (MCF7/PRLR tumors; multi-dose 15 mg/kg): 0 ± 0 mm^3; Average Tumor Growth Inhibition (%) (PC3/PRLR tumors; PC3/PRLR tumors TRIAL #2, Day 55): 85%
B2 | 100 | 80 | 6.9 | – | 73 | 150 | 68 | 2.7 | 87 | 0.49 | 87 | – | – | – | IC50 (PC3 cells): 200 nM; effect on MCF7/PRLR tumor growth (MCF7/PRLR tumors; multi-dose trial 1, 5 and 15 mg/kg): potently inhibited MCF7/PRLR tumor growth; Average Tumor Growth Inhibition (%) (PC3/PRLR tumors; PC3/PRLR tumors TRIAL #1, Day 63): 38%; effect on PC3/PRLR tumor growth (PC3/PRLR tumors; multi-dose, especially at 15 mg/kg): demonstrated inhibition of tumor growth
B3 | – | 71 | 48.9 | 3.3 | 82 | 100 | 82 | 11.6 | 80 | 0.47 | 100 | 95 | 4.82 | 3.8 | –
B4 | – | 71 | 5.1 | 3.0 | 77 | 100 | 82 | 1.13 | 78 | 0.29 | 100 | 95 | 0.38 | 3.6 | –

Source: patent publication US9688764B2, “Methods of treating breast cancer by administering anti-human prolactin receptor (PRLR) antibodies” (REGENERON PHARMACEUTICALS, INC., priority 2013, dated 2017)
